Data published in US20110165066A1 (AbbVie / Abbott, published 2011).
Values joined by “and” are separate entries in the source; they are usually repeats but may differ in a detail not shown here. Identical values can stand only once. Blank lines part the entries; values can stand above or below the binder they belong to.

Experiments:
[1] = molecular target: T1, human IL-13 variant (R130Q) (human, UniProt P35225 35-146); assay: SPR (Biacore), mAb captured, IL-13 as analyte
T1 construct: called R110Q in the assay descriptions (mature numbering); also called h IL-13v; hIL-13v

human IL-13 wild type [2] = molecular target: T2, human IL-13 wild type (human, UniProt P35225 35-146); assay: SPR (Biacore), mAb captured, IL-13 as analyte
T2 construct: also called h IL-13; h IL-13 wt

cynomolgus IL-13 = cynomolgus IL-13 (cynomolgus, UniProt Q0PW92 21-132); assay: cell-based or functional assay
[3] = molecular target: T1, human IL-13 variant (R130Q); assay: cell-based or functional assay
human IL-13 wild type [4] = molecular target: T2, human IL-13 wild type; assay: cell-based or functional assay
mouse IL-13 [5] = molecular target: T3, mouse IL-13 (mouse, UniProt P20109 26-131, limits assumed); assay: indirect ELISA, captured mAb, biotinylated mouse IL-13
T3 construct: also called mIL-13; murine IL-13
T3 sequence (looked up): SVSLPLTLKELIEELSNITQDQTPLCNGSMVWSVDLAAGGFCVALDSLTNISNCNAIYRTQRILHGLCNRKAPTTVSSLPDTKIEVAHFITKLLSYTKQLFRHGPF

human IL-13 wild type [6] = molecular target: T2, human IL-13 wild type; assay: blocking of IL-13 binding to IL-13Rα2, receptor binding assays
human IL-13 wild type [7] = molecular target: T2, human IL-13 wild type; assay: cell surface-based receptor binding assay, blocking 125I-IL-13 binding to IL-13Rα2-transfected COS cells
Procedure: Recombinant human IL-13 was labeled with ¹²⁵I (Amersham, Arlington Heights, Ill.), using IODO-GEN reagent (Pierce, Rockford, Ill.) as previously described (Obiri N I et al., (1995) J Biol Chem. 270:8797-8804). […] Transfected COS cells (5×10^5 cells in 100 μL binding buffer: RPMI 1640 containing 0.2% human serum albumin and 10 mmol HEPES) were incubated with 1.0 nM ¹²⁵I-IL-13 with or without 1 uM unlabeled IL-13 at 4° C. for 2 hours. Cell-bound ¹²⁵I-IL-13 was separated from unbound ¹²⁵I-IL-13 by centrifugation through a phthalate oil gradient, and radioactivity was determined with a gamma counter (Wallac, Gaithersburg, Md.).

human IL-13 wild type [8] = molecular target: T2, human IL-13 wild type; assay: receptor binding assays (cell surface-based on IL-13Rα2-transfected COS cells and ELISA-based with IL-13Rα2/Fc), 13C5.5 blocking human IL-13 binding to human IL-13Rα2; range told over both assays
human IL-13 wild type [9] = molecular target: T2, human IL-13 wild type; assay: SPR (Biacore)
Procedure: (§1) The BIACORE assay (Biacore, Inc, Piscataway, N.J.) determines the affinity of antibodies with kinetic measurements of on-, off-rate constants. […] All chemicals were obtained from Biacore® AB (Uppsala, Sweden) or otherwise from a different source as described in the text. Approximately 5000 RU of goat anti-mouse IgG, (Fcγ), fragment specific polyclonal antibody (Pierce Biotechnology Inc, Rockford, Ill.) diluted in 10 mM sodium acetate (pH 4.5) was directly immobilized across a CM5 research grade biosensor chip using a standard amine coupling kit according to manufacturer's instructions and procedures at 25 μg/ml. Unreacted moieties on the biosensor surface were blocked with ethanolamine. Modified carboxymethyl dextran surface in flowcell 2 and 4 was used as a reaction surface. Unmodified carboxymethyl dextran without goat anti-mouse IgG in flow cell 1 and 3 was used as the reference surface. For kinetic analysis, rate equations derived from the 1:1 Langmuir binding model were fitted simultaneously to association and dissociation phases of all eight injections (using global fit analysis) with the use of Biaevaluation 4.0.1 software. Purified antibodies were diluted in HEPES-buffered saline for capture across goat anti-mouse IgG specific reaction surfaces. Mouse antibodies to be captured as a ligand (25 μg/ml) were injected over reaction matrices at a flow rate of 5 μl/min. The association and dissociation rate constants, kₒₙ (unit M⁻¹s⁻¹) and koff (unit s⁻¹) were determined under a continuous flow rate of 25 μl/min Rate constants were derived by making kinetic binding measurements at ten different antigen concentrations ranging from 10-200 nM. […] Binding is recorded as a function of time and kinetic rate constants are calculated.

[10] = molecular target: T1, human IL-13 variant (R130Q); assay: cell-based or functional assay; remark: listed apart in the source
human IL-13 wild type [11] = molecular target: T2, human IL-13 wild type; assay: cell-based or functional assay; remark: listed apart in the source
[12] = molecular target: T1, human IL-13 variant (R130Q); assay: SPR (Biacore)
human IL-13 wild type [13] = molecular target: T2, human IL-13 wild type; assay: SPR (Biacore); remark: listed apart in the source
human IL-13 wild type [14] = molecular target: T2, human IL-13 wild type; assay: ELISA-based receptor binding assay, blocking biotin-IL-13 binding to IL-13Rα2/Fc
Procedure: After 16 hr, coating solution was removed by flicking plate contents in sink, and plates were washed and blocked 4 times with Superblock Blocking Buffer (240 ul/well) (Pierce). […] Plates were washed 5 times with 300 ul 0.1% PBST, and then 100 ul of 1:5000 diluted mouse anti-Biotin MAb (Jackson Immunosciences) was added and incubated at RT for 45 min. The plates were washed again 5 times with 300 ul 0.1% PBST, followed by addition of TMB substrate reagent (100 ul/well, Pharmingen); developed for 5 min, and stopped by adding 50 ul of 2M H2SO4 (VWR). ODs at 450 nm were determined by spectrophotometry.

mouse IL-13 [15] = molecular target: T3, mouse IL-13; assay: SPR (Biacore)
[16] = molecular target: T1, human IL-13 variant (R130Q); assay: SPR (Biacore), mAb captured, IL-13 as analyte; row shifted, read as variant IL-13 columns
Procedure: as §1

mouse IL-13 [17] = molecular target: T3, mouse IL-13; assay: BIACORE against recombinant mouse IL-13
mouse IL-13 [18] = molecular target: T3, mouse IL-13; assay: cell-based or functional assay

T1 sequence (P35225 35-146 limits assumed, stated change not applied): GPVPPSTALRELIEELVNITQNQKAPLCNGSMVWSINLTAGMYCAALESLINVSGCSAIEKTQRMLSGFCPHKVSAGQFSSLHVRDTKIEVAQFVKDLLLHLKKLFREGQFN
T2 sequence (P35225 other isoform, or with tags, fused parts or gaps limits assumed): as the sequence (P35225 35-146 limits assumed, stated change not applied) above, with Q110R counted along it
Chain of cynomolgus IL-13 (Q0PW92 entry or part of it): as the sequence (P35225 35-146 limits assumed, stated change not applied) above, with G1S, R10K, M42V, S67N, H83R, L100V counted along it

Kd [1]: 0.0921 nM
koff [1]: 5.86e-05 s⁻¹
kon [1]: 637000 M⁻¹ s⁻¹
Kd (human IL-13 wild type [2]): 0.112 nM
koff (human IL-13 wild type [2]): 6.5e-05 s⁻¹
kon (human IL-13 wild type [2]): 579000 M⁻¹ s⁻¹
Average IC50, IL-13-induced TARC production by A-549 cells (cynomolgus IL-13): 0.64 nM
Average IC50, IL-13-induced TARC production by A-549 cells [3]: 0.17 nM
Average IC50, IL-13-induced TARC production by A-549 cells (human IL-13 wild type [4]): 0.106 nM
binding result (mouse IL-13 [5]): no binding (tested: 0.1 to 100 ng/ml)
IC50 (human IL-13 wild type [6]): > 10 nM
B1: 9C11 (antibody, V domains shown)
VH: QVRLQQPGAELVRPGASVKLSCKASGYTFTSSWIHWVNQRPGQGLEWIGMIHPSDSETRLNQKFKDKATLTVDKSSSTAYMQLSSPTSEDSAVYYCASTATDFDYWGQGTTLTVSS
VL: DVVLTQTPLSLPVNIGDQASISCRSTQTLLNSDGFTYLDWYLQKPGQSPQLLIYLVSNRFSGVPDRFSGSGSGTDFTLKISRVEAEDLGVYYCFQNNYLPLTFGAGTKLELKR

IC50 (human IL-13 wild type [7]): 2.7 nM
IC50 (human IL-13 wild type [8]): ≥ 1 nM and ≤ 3 nM
Kd (human IL-13 wild type [9]): 0.0701 nM
koff (human IL-13 wild type [9]): 0.000176 s⁻¹
kon (human IL-13 wild type [9]): 2.51e+06 M⁻¹ s⁻¹
Potency (IC50), A-549 bioassay [10]: 69 pM
Potency (IC50), A-549 bioassay (human IL-13 wild type [11]): 124 pM
Kd [12]: 0.05 nM
Kd (human IL-13 wild type [13]): 0.07 nM
IC50 (human IL-13 wild type [14]): 1.1 nM
B2: 13C5.5 (antibody, human IgG1, V domains shown)
VH: EVTLRESGPGLVKPTQTLTLTCTLYGFSLSTSDMGVDWIRQPPGKGLEWLAHIWWDDVKRYNPALKSRLTISKDTSKNQVVLKLTSVDPVDTATYYCARTVSSGYIYYAMDYWGQGTLVTVSS
VL: DIQMTQSPSSLSASVGDRVTISCRASQDIRNYLNWYQQKPGKAPKLLIFYTSKLHSGVPSRFSGSGSGTDYTLTISSLQPEDIATYYCQQGNTLPLTFGGGTKVEIK
notes: Humanized; The light chain row is printed 'VL 1305.5'; also called humanized 13C5; recombinant humanized antibody 13C5.5

binding result (human IL-13 wild type [2]): no binding
Kd (mouse IL-13 [15]): 12 nM
Average IC50, IL-13-induced TARC production by A-549 cells (cynomolgus IL-13): 0.797 nM
Average IC50, IL-13-induced TARC production by A-549 cells [3]: 0.58 nM
Kd [16]: 0.22 nM
koff [16]: 5.58e-05 s⁻¹
kon [16]: 254000 M⁻¹ s⁻¹
Kd (mouse IL-13 [17]): 11.2 nM
IC50, A-549 bioassay against recombinant mouse IL-13 (mouse IL-13 [18]): 2.43 nM
B3: 3H7 (antibody, mouse IgG1, V domains shown)
VH: EVQLVESGGGLVKPGGSLKLSCAASGFTFSTYAMSWVRQTPEKRLEWVAGISSGGSYTYYPETMKGRFTISRDNARNTLYLQMSSLRSEDTAIYYCTRGSWGQGTSVTVSS
VL: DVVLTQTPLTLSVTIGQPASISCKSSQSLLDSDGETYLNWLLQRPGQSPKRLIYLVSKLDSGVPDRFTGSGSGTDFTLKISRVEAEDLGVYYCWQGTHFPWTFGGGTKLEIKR
notes: Murine monoclonal; also called mAb 3H7
